Blank lines part the entries; values can stand above or below the binder they belong to.
Assays:
Assay in all cases: holdup assay
Set-up in all cases: key: below the threshold = too weak to quantify, mostly under pKd 3.1 to 4
[1] = target: T1, GRIP1_2, Q9Y3R0
T1 sequence (Q9Y3R0 145-248, limits assumed, looked up): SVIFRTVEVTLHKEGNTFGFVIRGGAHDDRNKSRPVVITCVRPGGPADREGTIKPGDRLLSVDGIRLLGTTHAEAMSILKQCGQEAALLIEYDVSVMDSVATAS

[2] = target: CASK, O14936
[3] = target: T2, NHERF3_3, Q5T2W1
T2 sequence (Q5T2W1 238-333, limits assumed, looked up): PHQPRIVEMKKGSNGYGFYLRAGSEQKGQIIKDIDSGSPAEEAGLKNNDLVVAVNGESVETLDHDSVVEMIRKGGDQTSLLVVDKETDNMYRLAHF

[4] = target: MAST1, Q9Y2H9
Sequence of MAST1, Q9Y2H9 (Q9Y2H9 962-1065): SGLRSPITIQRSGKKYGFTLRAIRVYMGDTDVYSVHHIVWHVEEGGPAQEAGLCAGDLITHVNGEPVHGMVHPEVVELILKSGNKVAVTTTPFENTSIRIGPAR

[5] = target: T3, APBA1_2, Q02410
T3 sequence (Q02410 742-832, limits assumed, looked up): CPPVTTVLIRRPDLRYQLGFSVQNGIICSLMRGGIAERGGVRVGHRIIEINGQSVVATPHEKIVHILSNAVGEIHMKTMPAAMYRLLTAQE

[6] = target: LNX1_2, Q8TBB1
Sequence of LNX1_2, Q8TBB1 (Q8TBB1 371-470): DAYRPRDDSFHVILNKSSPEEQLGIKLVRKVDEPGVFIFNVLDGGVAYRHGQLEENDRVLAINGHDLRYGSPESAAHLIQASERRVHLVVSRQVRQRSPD

[7] = target: T4, CARD11, Q9BXL7
T4 sequence (Q9BXL7 662-765, limits assumed, looked up): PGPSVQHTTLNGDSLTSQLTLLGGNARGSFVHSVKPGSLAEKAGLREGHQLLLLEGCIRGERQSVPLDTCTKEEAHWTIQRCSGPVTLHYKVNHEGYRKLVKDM

[8] = target: GRASP, Q7Z6J2
Sequence of GRASP, Q7Z6J2 (Q7Z6J2 96-193): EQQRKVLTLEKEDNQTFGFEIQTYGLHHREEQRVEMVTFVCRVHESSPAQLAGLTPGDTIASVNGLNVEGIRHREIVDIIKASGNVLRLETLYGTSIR

[9] = target: AHNAK1, Q09666
Sequence of AHNAK1, Q09666 (Q09666 4-100): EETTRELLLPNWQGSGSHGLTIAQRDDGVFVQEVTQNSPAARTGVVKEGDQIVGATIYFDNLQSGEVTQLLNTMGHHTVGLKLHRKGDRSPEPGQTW

[10] = target: T5, PTPN13_1, Q12923
T5 sequence (Q12923 1088-1188, limits assumed, looked up): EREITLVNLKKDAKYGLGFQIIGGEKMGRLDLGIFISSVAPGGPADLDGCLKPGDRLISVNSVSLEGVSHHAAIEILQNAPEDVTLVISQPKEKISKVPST

[11] = target: HTRA2, O43464
Sequence of HTRA2, O43464 (O43464 355-458): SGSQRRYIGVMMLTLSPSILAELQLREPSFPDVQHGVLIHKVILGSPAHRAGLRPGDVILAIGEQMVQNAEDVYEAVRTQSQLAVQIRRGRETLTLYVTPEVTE

[12] = target: T6, PDZD7_3, Q9H5P4
T6 sequence (Q9H5P4 857-944, limits assumed, looked up): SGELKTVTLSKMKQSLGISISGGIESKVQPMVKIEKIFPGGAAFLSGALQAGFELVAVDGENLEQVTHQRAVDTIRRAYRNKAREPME

[13] = target: TJP1_2, Q07157
Sequence of TJP1_2, Q07157 (Q07157 181-274): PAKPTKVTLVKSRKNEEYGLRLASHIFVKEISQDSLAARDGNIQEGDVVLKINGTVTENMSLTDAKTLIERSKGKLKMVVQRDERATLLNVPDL

[14] = target: MAGI2_5, Q86UL8
Sequence of MAGI2_5, Q86UL8 (Q86UL8 915-1017): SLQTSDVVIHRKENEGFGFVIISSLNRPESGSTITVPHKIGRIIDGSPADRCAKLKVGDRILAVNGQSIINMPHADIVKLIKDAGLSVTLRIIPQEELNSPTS

[15] = target: Inadl_5, Q8NI35
Sequence of Inadl_5, Q8NI35 (Q8NI35 673-780): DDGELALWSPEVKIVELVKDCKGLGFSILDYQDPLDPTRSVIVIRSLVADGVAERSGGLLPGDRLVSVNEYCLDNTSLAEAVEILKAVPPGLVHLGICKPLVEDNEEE

[16] = target: Inadl_3, Q8NI35
Sequence of Inadl_3, Q8NI35 (Q8NI35 359-469): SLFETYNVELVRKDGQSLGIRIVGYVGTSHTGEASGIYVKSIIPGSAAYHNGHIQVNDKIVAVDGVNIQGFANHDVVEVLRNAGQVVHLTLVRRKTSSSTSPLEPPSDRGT

[17] = target: T7, RADIL, Q96JH8
T7 sequence (Q96JH8 971-1071, limits assumed, looked up): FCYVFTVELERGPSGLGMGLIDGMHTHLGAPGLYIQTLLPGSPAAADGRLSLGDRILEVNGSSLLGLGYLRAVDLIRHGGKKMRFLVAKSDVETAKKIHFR

[18] = target: T8, APBA3_1, O96018
T8 sequence (O96018 389-490, limits assumed, looked up): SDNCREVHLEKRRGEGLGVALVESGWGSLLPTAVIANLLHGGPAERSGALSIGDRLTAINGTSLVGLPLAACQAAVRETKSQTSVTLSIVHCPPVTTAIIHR

[19] = target: T9, MPDZ_12, O75970
T9 sequence (O75970 1857-1958, limits assumed, looked up): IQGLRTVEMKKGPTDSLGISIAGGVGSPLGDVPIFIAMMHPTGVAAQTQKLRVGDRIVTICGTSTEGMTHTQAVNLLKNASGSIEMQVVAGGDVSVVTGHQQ

[20] = target: T10, APBA2_1, Q99767
T10 sequence (Q99767 563-664, limits assumed, looked up): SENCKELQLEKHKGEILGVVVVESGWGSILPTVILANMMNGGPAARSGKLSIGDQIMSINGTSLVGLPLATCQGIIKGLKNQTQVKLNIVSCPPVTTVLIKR

[21] = target: T11, LNX2_2, Q8N448
T11 sequence (Q8N448 334-432, limits assumed, looked up): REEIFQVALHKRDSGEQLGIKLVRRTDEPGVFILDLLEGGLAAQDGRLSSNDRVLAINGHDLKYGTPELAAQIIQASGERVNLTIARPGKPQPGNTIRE

[22] = target: GORASP1, Q9BQQ3
Sequence of GORASP1, Q9BQQ3 (Q9BQQ3 1-208): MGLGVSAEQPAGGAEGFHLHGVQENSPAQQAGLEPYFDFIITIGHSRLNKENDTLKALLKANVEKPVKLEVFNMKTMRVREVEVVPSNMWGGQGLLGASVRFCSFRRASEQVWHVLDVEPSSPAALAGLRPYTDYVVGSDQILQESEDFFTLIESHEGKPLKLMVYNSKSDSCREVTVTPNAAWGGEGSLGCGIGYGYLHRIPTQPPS

[23] = target: T12, GRIP1_4, Q9Y3R0
T12 sequence (Q9Y3R0 467-571, limits assumed, looked up): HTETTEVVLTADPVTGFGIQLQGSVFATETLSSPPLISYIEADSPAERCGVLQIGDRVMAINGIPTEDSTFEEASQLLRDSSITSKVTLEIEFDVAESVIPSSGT

[24] = target: T13, MPP7, Q5T2T1
T13 sequence (Q5T2T1 134-230, limits assumed, looked up): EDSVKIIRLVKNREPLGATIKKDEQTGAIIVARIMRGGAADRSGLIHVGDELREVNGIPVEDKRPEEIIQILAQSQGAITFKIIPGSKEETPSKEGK

[25] = plain residues with an end cap or a label only (N-terminal biotin on a linker: ttds)
[26] = plain residues with an end cap or a label only (N-terminal biotin on a linker: ahx)

Sequence of CASK, O14936 (O14936 487-570): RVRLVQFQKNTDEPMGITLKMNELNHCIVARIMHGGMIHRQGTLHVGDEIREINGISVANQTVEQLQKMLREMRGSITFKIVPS

pKd [1, 25]: 3.52
pKd [2, 25]: below the threshold
pKd [3, 25]: below the threshold
pKd [4, 25]: below the threshold
pKd [5, 25]: 3.83
pKd [6, 25]: below the threshold
pKd [7, 25]: below the threshold
pKd [8, 25]: below the threshold
pKd [9, 25]: below the threshold
pKd [10, 25]: below the threshold
pKd [11, 25]: below the threshold
pKd [12, 25]: below the threshold
pKd [13, 25]: below the threshold
pKd [14, 25]: below the threshold
pKd [15, 25]: 4.29
pKd [16, 25]: below the threshold
pKd [17, 25]: below the threshold
pKd [18, 25]: below the threshold
pKd [19, 25]: below the threshold
pKd [20, 25]: below the threshold
pKd [21, 25]: below the threshold
pKd [22, 25]: below the threshold
pKd [23, 25]: below the threshold
pKd [24, 25]: below the threshold
B1: GPR6, P46095 (peptide)
chain: PFRSRSPSEV

pKd [1, 25]: below the threshold
pKd [2, 25]: below the threshold
pKd [3, 25]: below the threshold
pKd [4, 25]: 4.77
pKd [5, 25]: 3.8
pKd [6, 25]: below the threshold
pKd [7, 25]: 3.67
pKd [8, 25]: 3.45
pKd [9, 25]: below the threshold
pKd [10, 25]: below the threshold
pKd [11, 25]: below the threshold
pKd [12, 25]: 3.86
pKd [13, 25]: below the threshold
pKd [14, 25]: below the threshold
pKd [15, 25]: below the threshold
pKd [16, 25]: below the threshold
pKd [17, 25]: below the threshold
pKd [18, 25]: below the threshold
pKd [19, 25]: below the threshold
pKd [20, 25]: below the threshold
pKd [21, 25]: below the threshold
pKd [22, 25]: 3.48
pKd [23, 25]: below the threshold
pKd [24, 25]: below the threshold
B2: FZD7, O75084 (peptide)
chain: SHSSKGETAV

pKd [1, 26]: below the threshold
pKd [2, 26]: below the threshold
pKd [3, 26]: below the threshold
pKd [4, 26]: 4.52
pKd [5, 26]: below the threshold
pKd [6, 26]: below the threshold
pKd [7, 26]: below the threshold
pKd [8, 26]: 4.41
pKd [9, 26]: below the threshold
pKd [10, 26]: below the threshold
pKd [11, 26]: below the threshold
pKd [12, 26]: 3.64
pKd [13, 26]: below the threshold
pKd [14, 26]: 3.96
pKd [15, 26]: below the threshold
pKd [16, 26]: 3.89
pKd [17, 26]: 3.78
pKd [18, 26]: below the threshold
pKd [19, 26]: below the threshold
pKd [20, 26]: below the threshold
pKd [21, 26]: below the threshold
pKd [22, 26]: 3.56
pKd [23, 26]: below the threshold
pKd [24, 26]: below the threshold
B3: USH1C, Q9Y6N9 (peptide)
chain: KEYDDELTFF
